From patent US7572594B2, “Screening assays for agonists or antagonists or receptor activator of NF-κB” (Immunex Corporation, priority 2000, dated 2009)

How the values were obtained:
Type in all cases: cell-based, mouse
[1] = tested on: c-src tyrosine kinase; test: c-src immune complex kinase assay in RANK −/− osteoclast precursors infected with RANK retrovirus; conditions: cells differentiated after retroviral infection; background = uninfected RANK −/− cells
Experimental: Experiments were conducted in which DNA encoding wild-type or human RANK/TRAF6 binding mutant (RANK Δ340-421) was introduced into hematopoietic cells isolated from RANK −/− mice. Full-length and mutant human RANK DNAs were subcloned into the pBMNZ retroviral vector as previously described (Kinsella and Nolan, 1996, Human Gene Therapy 7:1405-1413). Infectious RANK-containing retrovirus was produced in 293-E Phoenix packaging cells as described (Kinsella and Nolan, 1996). Supernatants from these cells were used as a source of infectious virus particles.
The generation of the RANK −/− mice used in these assays has been described previously (Dougall et al., 1999). Spleen cells were isolated from 3-6 week old RANK−/− mice and enriched for osteoclast precursors by depleting the initial cell population of various types of cells other than osteoclast precursors. For this “depletion” step, the cells were incubated with biotinylated antibodies against CD3 (specific for T cells), Ter-119 (specific for erythrocytes), and GR-1 (specific for granulocytes). After the antibodies had bound to their respective target cells, streptavidin-conjugated magnetic beads were added to the culture, and the mixture of cells was passed over magnetic columns (MACS depletion columns; MILLTENNYI). […]
To induce c-src and F-actin rings, recombinant mRANK-L/leucine zipper protein was added to the cultures at a concentration of 1 μg/ml for various times after which the cells were lysed in a buffer containing 50 mM HEPES (pH 7.2), 10% glycerol, 250 mM NaCl and 1% Triton X-100. […] C-src activity in the immune complex was monitored using a commercially available assay kit (Upstate Biotechnology, Lake Placid, N.Y.). […] The phosphorylated substrate peptide was then separated from the residual labeled ATP using phosphocellulose paper and labeled peptide was quantified using a scintillation counter. […]

[2] = tested on: primary hematopoietic cells from the RANK −/− mice; test: F-actin ring formation, phalloidin staining; conditions: 5 days in 40 ng/ml CSF-1 and 200 ng/ml mRANK-L
Text: To detect F-actin rings, cells are fixed, such as by exposure to 3% paraformaldehyde, and visualized by staining cells with a fluorescent probe that binds specifically with actin. A suitable fluorescent tag is phalloidin, which can be obtained from Molecular Probes, Eugene, Oreg. The fluorescent signal is detected, for example, using a standard fluorescent microscope, and the number of cells having F-actin rings is visually quantified. An F-actin ring is identified as a continuous ring of F-actin at the periphery of a cell, and these distinct structures are visible through a microscope.
A procedure to detect F-actin rings was carried out as follows. Primary hematopoietic cells from the RANK −/− mice were infected with retroviral constructs encoding either the full-length human RANK cDNA or the RANK/TRAF6 binding mutant (RANK Δ340-421). Cells were cultured on LabTek Chamber slides with #1 borosilicate coverglasses (Nalge/Nunc). After incubation for 5 days in MEM containing 10% fetal bovine serum containing 40 ng/ml CSF-1 and 200 ng/ml mRANK-L. The media was aspirated, washed twice in PBS and then fixed in a solution of 3% paraformaldehyde for 10 minutes, followed by quenching in 50 mM NH4Cl. […] The fluorescent signal was detected using a standard fluorescent microscope, and F-actin rings were identified as continuous rings of F-actin at the periphery of individual cells.

[3] = tested on: spleen cells from RANK −/− mice; test: CaPO4 resorption (pit formation) assay; conditions: 5 days in 40 ng/ml CSF-1 and 200 ng/ml mRANK-L on CaPO4 film
Text: The resorption of CaPO4, upon which this assay is based, is considered to be a measure of osteoclast activity. Spleen cells were isolated from 3-6 week old RANK −/− mice and treated as described in Example 9 to remove cells expressing the CD3, Ter-119, and GR-1 antigens. Cells not expressing any of these antigens were harvested and infected as described in Example 9 with retroviral vector particles containing full-length or TRAF6 binding site deletion mutants of RANK.
Following infection, the spleen cells were harvested and plated in MEM containing 10% fetal bovine serum containing 40 ng/ml CSF-1 and 200 ng/ml mRANK-L onto 16 well quartz slides coated with a thin film of CaPO4 (Osteologic, BD Biosystems). After 5 days in culture, the slides were washed, the cells removed by washing with bleach, and the slides washed again with buffer. […] The number of pits in the CaPO4 film is a measure of the extent to which the RANK-L induced the cells grown on that slide to differentiate into osteoclasts.
If desired, the CaPO4 film can be stained using a 0.5% solution of alizarin red for 4 to 5 minutes followed by washing in water. After staining, the resorptive lacunae are visualized by phase contrast microscopy as a clear area on a red background.

B1: RANK Δ340-421: human RANK (SEQ ID NO:2) with the TRAF6 binding site (amino acids 340-421) deleted (protein, listed as Homo sapiens)
chain: MAPRARRRRPLFALLLLCALLARLQVALQIAPPCTSEKHYEHLGRCCNKCEPGKYMSSKCTTTSDSVCLPCGPDEYLDSWNEEDKCLLHKVCDTGKALVAVVAGNSTTPRRCACTAGYHWSQDCECCRRNTECAPGLGAQHPLQLNKDTVCKPCLAGYFSDAFSSTDKCRPWTNCTFLGKRVEHHGTEKSDAVCSSSLPARKPPNEPHVYLPGLIILLLFASVALVAAIIFGVCYRKKGKALTANLWHWINEACGRLSGDKESSGDSCVSTHTANFGQQGACEGVLLLTLEEKTFPEDMCYPDQGGVCQGTCVGGGPYAQGEDARMLSLVSKTEIEEDSLQKEVDSGHCPHWAASPSPNWADVCTGCRNPPGEDCEPLVGSPKRGPLPQCAYGMGLPPEEEASRTEARDQPEDGADGRLPSSARAGAGSGSSPGGQSPASGNVTGNSNSTFISSGQVMNFKGDIIVVYVSQTSQEGAAAAAEPMGRPVQEETLARRDSFAGNGPRFPDPCGGPEGLREPEKASRPVQEQGGAKA
c-src activity [1]: not discernibly different from background levels
cells with F-actin rings [2]: no F-actin rings were discerned
CaPO4 resorption [3]: insignificant levels of CaPO4 resorption
